Test results taken from article PMC8558138.
Several values for one entry are separate records, joined by “and”; a condition that tells them apart may be missing. Equal entries are not always repeated. Where two headings read alike, the source gives them in different places. Blank lines part the entries; values can stand above or below the substance they belong to.

Tests used:
[1] = target: Purified recombinant full-length HERV-W ENV protein (pHERV-W ENV) produced in E. coli (human); experiment: automated capillary Western blot (Simple Western, WES); purified rENV monomers incubated in serum-free DMEM with sulfatides from bovine brain; detection with GN_mAb_Env01, or GN_mAb_Env04 after deglycosylation
[2] = target: Purified recombinant full-length HERV-W ENV protein (pHERV-W ENV) produced in E. coli (human); experiment: automated capillary Western blot (Simple Western, WES); purified rENV incubated up to 24 h at 37 °C in DMEM with 10% FBS (also with 1.5% SDS overnight: only a low proportion of hexamer); samples denatured at 95 °C; detection with GN_mAb_Env01; denaturation-resistant oligomers
[3] = target: pHERV-W ENV soluble antigen from MS brain active lesions (human (endogenous in MS brain lesions)); experiment: automated capillary Western blot (Simple Western, WES); soluble fraction of frozen brain white matter blocks (MS active lesions), fos-cholin 16 extraction, >= 120 kDa enriched on AMICON, denaturing conditions; detection with GN_mAb_Env01-biotin, or GN_mAb_Env04 after deglycosylation
[4] = target: pHERV-W ENV expressed in transfected HEK293T cells (pCMV-HERV-W ENV) (human); experiment: automated capillary Western blot (Simple Western, WES); lysates of transfected HEK293T cells in RIPA with 1% fos-cholin 16, soluble and insoluble fractions, denatured at 95 °C; 12-230 kDa and 66-440 kDa matrices; detection with GN_mAb_Env01, GN_mAb_Env04, GN_mAb_Env-K01 or anti-FLAG
[5] = target: pHERV-W ENV expressed in transfected HEK293T cells (pCMV-HERV-W ENV) (human); experiment: as above; remark: listed apart in the source

Substance: Purified recombinant full-length HERV-W ENV protein (pHERV-W ENV) produced in E. coli (natural protein)
- stoichiometry N [1]: 6
- stoichiometry N [2]: 6 and 2

Substance: pHERV-W ENV soluble antigen from MS brain active lesions (natural protein)
- stoichiometry N [3]: 6

- stoichiometry N [4]: 3
- stoichiometry N [5]: 2
Substance: pHERV-W ENV expressed in transfected HEK293T cells (pCMV-HERV-W ENV) (natural protein)
